Laboratory results from US20190367612A1 (Daiichi Sankyo, published 2019).

T1: amino-terminal peptide of cynomolgus monkey GPRC5D …(Biotin)-NH2 (cynomolgus monkey, C-terminal lysine carrying biotin, C-terminal amide)
T1 construct: also called amino-terminal peptide of biotinylated cynomolgus monkey GPRC5D
T1 peptide: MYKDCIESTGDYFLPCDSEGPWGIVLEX

T2: human GPRC5D amino-terminal peptide MYKDCIESTGDYFLLCDAEGPWGIILE-K(Biotin)-NH2, having an intramolecular … (human, C-terminal lysine carrying biotin, C-terminal amide; intramolecularly formed disulfide bond)
T2 construct: Peptide Institute synthetic peptide; also called amino-terminal peptide of biotinylated human GPRC5D (disulfide bond present)
T2 peptide: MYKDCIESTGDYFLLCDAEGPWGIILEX

T3: mouse GPRC5D (mouse, UniProt Q9JIL6 1-344)
T3 construct: whole, on cells
T3 sequence (looked up): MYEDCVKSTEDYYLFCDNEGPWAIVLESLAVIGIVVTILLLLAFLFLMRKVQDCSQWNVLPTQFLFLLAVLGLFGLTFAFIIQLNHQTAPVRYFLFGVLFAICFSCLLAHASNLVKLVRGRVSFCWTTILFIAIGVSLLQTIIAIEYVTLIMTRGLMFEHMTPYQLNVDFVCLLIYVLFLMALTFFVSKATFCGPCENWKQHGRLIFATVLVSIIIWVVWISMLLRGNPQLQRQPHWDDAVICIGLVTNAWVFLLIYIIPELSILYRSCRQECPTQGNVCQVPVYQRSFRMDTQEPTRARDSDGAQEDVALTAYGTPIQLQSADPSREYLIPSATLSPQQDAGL

B1: human antibody C3022 scFv (scFv)
scFv: QVQLVQSGAEVKKPGASVKVSCKASGYTFTGYYMHWVRQAPGQGLEWMGRINPNSGGTNYAQKFQGRVTMTRDTSISTAYMELSGLRSDDTAVYYCASGSVRHPWGQGTLVTVSSGGGGSGGGGSGGGGSQPVLTQPPSASGTPGQRVTISCSGSRSNIGGNIVSWYQQFPGTAPRLLTYADNQRPSGVPDRFSGSKSGTSASLAISGLQSEDEADYYCAAWDDSLNGVVFGGGTKLTVL
notes: also called C3022 antibody scFv; not shown: FLAG and His tags at the carboxyl terminus
B2: IgG form of the human antibody C2037 (antibody, V domains shown)
VH: not shown
VL: QPVLTQPPSASGTPGQRVTISCSGSNSNIGSRTVNWYQHLPGTAPRLLIYGNNQWPSGVPDRFSGSKSGSSASLAISGLRSEDEADYYCAAWDDSLSGVVFGGGTKLTVLG
notes: Human IgG1; also called C2037 IgG form; full-length IgG form containing C2037
B3: IgG form of the human antibody C3048 (antibody, V domains shown)
VH: QVQLVQSGAEVKKPGSSVKVSCKASGGTFSRYAISWVRQAPGQGLEWMGGIIPIFGTANYAQKFQGRVTITADQSTRTAYMDLGRLRSEDTAVYYCALEGFRDSLKRNPFDIWGQGTMVTVSS
VL: QSVVTQPPSVSAAPGQKVTISCSGGTTNIGSNYVSWYQQLPGTAPKFLMYENNKRPSGIPDRFSGSKSGTSATLAITGLQTGDEATYYCSTWDSSLNTGLFGGGTKLTVLG
notes: Human IgG1; also called C3048 IgG form; full-length IgG form containing C3048
B4: IgG form of the human antibody C3022 (antibody, V domains shown)
VH: QVQLVQSGAEVKKPGASVKVSCKASGYTFTGYYMHWVRQAPGQGLEWMGRINPNSGGTNYAQKFQGRVTMTRDTSISTAYMELSGLRSDDTAVYYCASGSVRHPWGQGTLVTVSS
VL: QPVLTQPPSASGTPGQRVTISCSGSRSNIGGNIVSWYQQFPGTAPRLLTYADNQRPSGVPDRFSGSKSGTSASLAISGLQSEDEADYYCAAWDDSLNGVVFGGGTKLTVLG
notes: Human IgG1; also called C3022 IgG form; full-length IgG form containing C3022
B5: human chimeric 7B4 (antibody, human IgG1, V domains shown)
VH: EIHLQESGPGLVKPSQSLSLTCSVTGYTITSGYDWSWIRKFPGNKMEWMAYMSYRGSTNYNPSLKSRISITRDTSKNQFFLQLNSVTTEDTATYYCALTRTYWYNYYYVLDAWGQGASVTVSS
VL: DIQMTQSPSFLSASVGERVTLSCKASQNINKYLDWYQQKLGEPPKLLIYNTNNLHTGIPSRFSGSGSGTDYTLTISGLQPEDVATYFCLQRNSWYTFGAGTKLELKR
notes: Human IgG1 / kappa constant regions
B6: human chimeric 2A4 (antibody, human IgG1, V domains shown)
VH: QVQLQQSGAELAKPGTSVKLSCKASGYTFTSYYIYWVKQRPGQGLEWIGYVYPGYGGTYYSDKFKGKATFTADTSSSTAYMLLGSLTPEDSAYYFCARRKGIIRGPGYFDYWGQGVMVTVSS
VL: DIQMTQSPASLSASLGETVSIECLASEGISNSLAWYQQKPGKSPQLLIYGASSLQDGVPSRFSGSGSGTQYSLKISGMQPEDEGLYYCQQGYKYPPTFGGGTKLELKR
notes: as for B5

Assays:
[1] = biological target: T1, amino-terminal peptide of cynomolgus …; experiment: ELISA, chemiluminescence: biotinylated amino-terminal peptide of cynomolgus monkey GPRC5D on NeutrAvidin, scFv detected with HRP anti-FLAG antibody
Experimental: NeutrAvidin diluted to 1 μg/mL with PBS was added in an amount of 50 μL/well to 96-well Maxi-sorp plate (Black, Nunc/Thermo Fisher Scientific Inc.), and the plate was left standing overnight at 4° C. for immobilization. After washing three times with an ELISA buffer, the amino-terminal peptide of the biotinylated human or cynomolgus monkey GPRC5D (used in Example 10)-1) diluted to 1 μg/mL with PBS was added thereto, and the plate was shaken at room temperature for 1 hour. After washing three times with an ELISA buffer, the plate was blocked with Blocker Casein and washed three times with an ELISA buffer. Then, the C2037, C3048, C3015, or C3022 scFv was added to the plate and reacted at room temperature for 2 hours. After washing three times with an ELISA buffer, a horseradish peroxidase (HRP)-labeled anti-FLAG antibody diluted 5000-fold with an ELISA buffer was added thereto in an amount of 50 μL/well and reacted at room temperature for 1 hour. After washing five times with an ELISA buffer, SuperSignal Pico ELISA Chemiluminescent substrate was added. After 10 minutes, the chemiluminescence was measured using a plate reader.

[2] = biological target: T2, human GPRC5D amino-terminal peptide …; experiment: SPR (Biacore T200), kinetic analysis: biotinylated amino-terminal peptide of human GPRC5D on Sensor Chip CAP, scFv as analyte
Experimental: The binding activity of the anti-GPRC5D antibodies against the amino-terminal peptide of human GPRC5D was tested by SPR using Biacore T200. The amino-terminal peptide of biotinylated human GPRC5D diluted to 2 nM with HBS-EP+ (manufactured by GE Healthcare Bio-Sciences Corp.) was immobilized on Sensor Chip CAP (manufactured by GE Healthcare Bio-Sciences Corp.) by contact at a rate of 10 μL/min for 180 seconds. Then, Kd was calculated by kinetic analysis using a plurality of concentrations of each scFv diluted with HBS-EP+ as analytes.

[3] = biological target: T4, human GPRC5D (human, UniProt Q9NZD1 1-345); experiment: flow cytometry on KMS-34 cells (endogenous human GPRC5D), anti-FLAG antibody and Alexa 488 anti-mouse IgG detection
T4 construct: whole, on cells; also called hGPRC5D; G-protein coupled receptor family C group 5 member D
Experimental: The KMS-34 cells were recovered by centrifugation, washed twice with a FACS buffer (PBS containing 0.5% BSA and 2 mM EDTA, pH 7.4), and then suspended in the same solution as above. The C2037, C3048, C3015 or C3022 scFv was added to the obtained cell suspension, and the mixture was left standing at 4° C. for 2 hours. After washing twice with a FACS buffer, the cells were suspended by the addition of an anti-FLAG antibody (Sigma-Aldrich Corp.), and the mixture was further left standing at 4° C. for 1 hour. After washing twice with a FACS buffer, the cells were suspended by the addition of Alexa 488-labeled anti-mouse IgG antibody (Jackson ImmunoResearch Laboratories, Inc.), and the mixture was further left standing at 4° C. for 1 hour. After washing twice with a FACS buffer, the cells were fixed in 1% PFA (prepared from a 32% paraformaldehyde solution (Electron Microscopy Sciences)), followed by detection using a flow cytometer (FACSCanto™ II; Becton, Dickinson and Company). The data was analyzed using Flowjo (Tree Star, Inc.).

[4] = biological target: T2, human GPRC5D amino-terminal peptide …; experiment: ELISA, chemiluminescence: biotinylated amino-terminal peptide of human GPRC5D on NeutrAvidin, culture supernatant of IgG-expressing cells (one concentration, not given), HRP anti-human Fab detection
Experimental: (§1) NeutrAvidin diluted to 1 μg/mL with PBS was added in an amount of 50 μL/well to 96-well Maxi-sorp plate, and the plate was left standing overnight at 4° C. for immobilization. After washing three times with an ELISA buffer, the amino-terminal peptide of the biotinylated human or cynomolgus monkey GPRC5D (used in Example 10)-1) diluted to 1 μg/mL with PBS was added thereto, and the plate was shaken at room temperature for 1 hour. After washing three times with an ELISA buffer, the plate was blocked with Blocker Casein and washed three times with an ELISA buffer. Then, the culture solution of the IgG-expressing FreeStyle 293F cells was added to the plate and reacted at room temperature for 2 hours. After washing three times with an ELISA buffer, a horseradish peroxidase (HRP)-labeled anti-human Fab antibody (Jackson ImmunoResearch Laboratories, Inc.) diluted 2500-fold with ELISA buffer was added thereto in an amount of 50 μL/well and reacted at room temperature for 1 hour. After washing five times with an ELISA buffer, SuperSignal Pico ELISA Chemiluminescent substrate was added. After 10 minutes, the chemiluminescence was measured using a plate reader.

[5] = biological target: T4, human GPRC5D; experiment: flow cytometry on KHM-1B cells (human GPRC5D), PE anti-human IgG Fc detection, rMFI = MFI minus isotype control
Experimental: Human multiple myeloma cell line KHM-1B cells expressing GPRC5D were adjusted to a concentration of 2×10⁶ cells/mL with PBS containing 5% FBS, inoculated in an amount of 100 μL/well to a 96-well U-bottomed microplate, and centrifuged to remove the supernatant. The culture supernatant of each human anti-GPRC5D antibody (full-length IgG form containing C2037, C3048, C3015, or C3022) obtained in Example 10)-5 or Human IgG isotype control antibody (Calbiochem/Merck Millipore Corp.) adjusted to 14 ng/mL to 30 μg/mL was added thereto in an amount of 100 μL/well, and the plate was left standing at 4° C. for 1 hour. The cells were washed twice with PBS containing 5% FBS. Then, R-Phycoerythrin AffiniPure F(ab′)2 Fragment Goat Anti-Human IgG, Fcγ Fragment Specific (Jackson ImmunoResearch Laboratories, Inc.) diluted 100-fold with PBS containing 5% FBS was added thereto in an amount of 100 μL/well, and the plate was left standing at 4° C. for 1 hour. The cells were washed twice with PBS containing 5% FBS and then resuspended in PBS containing 5% FBS, followed by detection using a flow cytometer (FACSCanto™ II; Becton, Dickinson and Company). The data was analyzed using Flowjo (Tree Star, Inc.). The PE fluorescence intensity of the cell fraction was plotted to a histogram, and the mean fluorescence intensity (MFI) was calculated. The MFI value of the control antibody was subtracted from the MFI value of the GPRC5D antibody to calculate a relative value of MFI (rMFI).

[6] = biological target: T1, amino-terminal peptide of cynomolgus …; experiment: ELISA, chemiluminescence: biotinylated amino-terminal peptide of cynomolgus monkey GPRC5D on NeutrAvidin, culture supernatant of IgG-expressing cells (one concentration, not given), HRP anti-human Fab detection
Experimental: as §1

[7] = biological target: T3, mouse GPRC5D; experiment: flow cytometry, in the same way as in Example 5)-2

Binder | binding result [4] | EC50 (read off the curve) [5] | binding result [6] | binding result [7] | also measured
B1 |  |  |  |  | binding result [1]: binds; Kd [2]: 95 nM; binding result [3]: binds
B2 | binds | ~8 nM | binds |  | 
B3 | binds | 7 to 8 nM | binds |  | 
B4 | binds |  | binds |  | binding result [5]: binds
B5 |  |  |  | no binding | 
B6 |  |  |  | no binding | 
